Target: the molecule itself
Experiment: SEC; Superdex 200 increase 10/300 GL, 50 mM potassium phosphate buffer, pH 7.0, 4°C; solution obtained after heating the apoferritin hydrogel at 90°C for 30 min; sizes estimated from a standard curve of standard proteins

B1: horse L apoferritin without eight N-terminal residues (Fer8) (domain or fragment, UniProt P02791 9-175, looked up)
chain: YSTEVEAAVNRLVNLYLRASYTYLSLGFYFDRDDVALEGVCHFFRELAEEKREGAERLLKMQNQRGGRALFQDLQKPSQDEWGTTLDAMKAAIVLEKSLNQALLDLHALGSAQADPHLCDFLESHFLDEEVKLIKKMGDHLTNIQRLVGSQAGLGEYLFERLTLKHD
notes: horse L ferritin (ferritin light chain), printed as 'without eight N-terminal residues'; theoretical [Fer8 subunit + H+] = 19148; The limit 9-end follows from 'without eight N-terminal residues'; also called recombinant horse apoferritin; Fer8 subunit; source: E. coli Nova blue cells (plasmid pKIT8), purified (heat 60°C, Q Sepharose, HiTrap Q HP, SEC); gelled by acid denaturation and …
stoichiometry N: 24

— publication PMC8565734, “Construction of ferritin hydrogels utilizing subunit–subunit interactions” (PLoS ONE, 2021)
